According to patent US20260028412A1 (PRECISION BIOSCIENCES, published 2026):

T1: His-tagged BCMA protein (Homo sapiens (Human), UniProt Q02223 1-54)
T1 construct: not shown: His tag
T1 sequence: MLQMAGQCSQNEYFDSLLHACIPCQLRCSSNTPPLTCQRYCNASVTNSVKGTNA

B1: BCMA-3L/3H full-length IgG4 antibody (antibody, V domains shown)
VH: QIQLVQSGPELKKPGETVKISCKASGYTFTHYSINWVKRAPGKGLKWMGWINTESGEPTYAYDFKGRFAFSLETSASTAYLQINNLKYEDTATYFCALDYESAMDYWGQGTSVTVSS
VL: DIVLTQSPPSLAMSLGKRATISCRASESVTIPGQHLINWYQQKPGQPPKLLIQRASNVESGVPARFSGSGSRTDFTLTIDPVEEDDVAVYYCLQTRGIPRTFGGGTKLEIKR
notes: also called BCMA-3L/3H full length antibody
B2: BCMA-3L/20H full-length IgG4 antibody (antibody, V domains shown)
VH: QIQLVQSGPELKKPGETVKISCKASGYTFTHYSINWVKRAPGKGLKWMGWINTETRESTYAYDFKGRFAFSLETSASTAYLQINNLKYEDTATYFCALDYKQAMDYWGQGTSVTVSS
VL: DIVLTQSPPSLAMSLGKRATISCRASESVTIPGQHLINWYQQKPGQPPKLLIQRASNVESGVPARFSGSGSRTDFTLTIDPVEEDDVAVYYCLQTRGIPRTFGGGTKLEIKR
notes: also called BCMA-3L/20H full length antibody; BCMA-3L/20H antibody clone

Tests used:
[1] = molecular target: human BCMA expressed on the cell surface (human) (UniProt Q02223); assay: flow cytometry on K562-BCMA cells, secondary antibody only
[2] = molecular target: human BCMA expressed on the cell surface (human) (UniProt Q02223); assay: flow cytometry on K562-BCMA cells, goat anti-human IgG secondary
[3] = molecular target: His-tagged BCMA protein (Homo sapiens (Human)) (UniProt Q02223); assay: biolayer interferometry (Octet RED96), His-tagged BCMA loaded on Anti-Penta-HIS (HIS1K) sensors, antibody as analyte at 138.9 nM
[4] = molecular target: His-tagged BCMA protein (Homo sapiens (Human)) (UniProt Q02223); assay: Octet RED96, His-tagged BCMA on anti-His biosensor tips, antibody as analyte
His-tagged BCMA protein [5] = molecular target: T1, His-tagged BCMA protein; assay: as above
Description: (§1) Four full length antibodies were analyzed using the OctetRED96 technology for assessment of binding affinity by measurement of the equilibrium dissociation constant (KD). Within the group of four were the two candidate anti-BCMA antibodies (BCMA-3L/3H and BCMA-3L/20H), the positive anti-BCMA control described in Example 1, and the anti-CD19 negative control described in Example 1. In the experiment, His-tagged BCMA protein was loaded onto anti-His antibody coated biosensor tips and supplied antibodies were utilized as analytes to measure KD.

His-tagged BCMA protein [6] = molecular target: T1, His-tagged BCMA protein; assay: biolayer interferometry (Octet RED96), His-tagged BCMA loaded on Anti-Penta-HIS (HIS1K) sensors, antibody as analyte at 138.9 nM
Description: as §1

Molecule	% positive cells [2]	Response [3]	Kd (His-tagged BCMA protein [5])	koff (His-tagged BCMA protein [6])	kon (His-tagged BCMA protein [6])	further results
goat anti-human IgG secondary antibody						% positive cells [1]: 0.18%
full-length human IgG4 antibody expressing the anti-CD19 targeting moiety FMC63	1.2%	0.0032				
positive control IgG4 anti-BCMA antibody (comprising the VH and VL regions of the C11D5.3 antibody described in WO 2010/104949)	10.1%	2.31				Kd [4]: < 0.001 nM; koff [3]: < 1e-07 s⁻¹; kon [3]: 236000 M⁻¹ s⁻¹
B1			1.38 nM	0.000333 s⁻¹	242000 M⁻¹ s⁻¹	
B2			2.14 nM	0.000458 s⁻¹	214000 M⁻¹ s⁻¹	
